In publication PMC13398683:

Biological target: Endothelin Receptor Type B (human (endogenous in LGG275 and other patient-derived glioma lines)) (UniProt P24530)
Sequence of UniProt P24530 (P24530 27-442): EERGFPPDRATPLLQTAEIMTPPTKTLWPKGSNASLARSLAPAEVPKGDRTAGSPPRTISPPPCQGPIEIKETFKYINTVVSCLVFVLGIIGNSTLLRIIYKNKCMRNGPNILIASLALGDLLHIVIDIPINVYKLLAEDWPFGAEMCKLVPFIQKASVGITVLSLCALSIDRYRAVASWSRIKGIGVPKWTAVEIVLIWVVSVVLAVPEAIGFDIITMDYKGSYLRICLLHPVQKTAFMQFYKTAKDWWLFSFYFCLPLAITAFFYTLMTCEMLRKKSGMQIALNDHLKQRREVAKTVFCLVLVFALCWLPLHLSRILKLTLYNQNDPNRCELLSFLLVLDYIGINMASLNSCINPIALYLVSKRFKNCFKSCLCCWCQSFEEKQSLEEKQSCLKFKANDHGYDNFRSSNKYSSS

growth of LGG275 cells, dose-response with ET-3 (4 pM-40 nM): lowest concentration with growth inhibition: 0.4 nM
Binder: CTCFTYKDKECVYYCHLDIIW (ligand) [Endothelin 3]
